Assay results: the supplement of paper PMC9233669
Variants at the floor of the assay were thinned out.

Assays:
biotinyl-Phe-oxazolone = assay: self-aminoacylation, catalytic enhancement (BFO) (fold over background); higher = more active; k-Seq, kA / k0A0; sequences stand for … in GGGAAUGGAUCCACAUCUACGAAUUC…UUCACUGCAGACUUGACGAAGCUG
Summary of the method: (§1)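 Mutagenized RNA pools (0.43 μM; 21-nt variable region) were treated with 2–1250 μM of each biotinyl-aminoacyl-oxazolone. Conditions were 50 μL HEPES/NaCl/KCl/MgCl2/CaCl2 buffer, 5% acetonitrile, pH 6.9–7.0, room temperature, 90 minutes. Catalytic enhancement, the median kA relative to the uncatalyzed rate, was derived from streptavidin capture, qPCR and Illumina sequencing.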

biotinyl-Ile-oxazolone = assay: self-aminoacylation, catalytic enhancement (BIO) (fold over background); higher = more active; k-Seq, kA / k0A0; sequences stand for … in GGGAAUGGAUCCACAUCUACGAAUUC…UUCACUGCAGACUUGACGAAGCUG
Summary of the method: as §1

biotinyl-Met-oxazolone = assay: self-aminoacylation, catalytic enhancement (BMO) (fold over background); higher = more active; k-Seq, kA / k0A0; sequences stand for … in GGGAAUGGAUCCACAUCUACGAAUUC…UUCACUGCAGACUUGACGAAGCUG
Summary of the method: as §1

biotinyl-Val-oxazolone = assay: self-aminoacylation, catalytic enhancement (BVO) (fold over background); higher = more active; k-Seq, kA / k0A0; sequences stand for … in GGGAAUGGAUCCACAUCUACGAAUUC…UUCACUGCAGACUUGACGAAGCUG
Summary of the method: as §1

biotinyl-Leu-oxazolone = assay: self-aminoacylation, catalytic enhancement (BLO) (fold over background); higher = more active; k-Seq, kA / k0A0; sequences stand for … in GGGAAUGGAUCCACAUCUACGAAUUC…UUCACUGCAGACUUGACGAAGCUG
Summary of the method: as §1

biotinyl-Trp-oxazolone = assay: self-aminoacylation, catalytic enhancement (BWO) (fold over background); higher = more active; k-Seq, kA / k0A0; sequences stand for … in GGGAAUGGAUCCACAUCUACGAAUUC…UUCACUGCAGACUUGACGAAGCUG
Summary of the method: as §1

Sequence | self-aminoacylation (biotinyl-Phe-oxazolone) | self-aminoacylation (biotinyl-Ile-oxazolone) | self-aminoacylation (biotinyl-Met-oxazolone) | self-aminoacylation (biotinyl-Val-oxazolone) | self-aminoacylation (biotinyl-Leu-oxazolone) | self-aminoacylation (biotinyl-Trp-oxazolone)
CCACACUUCAAGCGAUAGGUC [Fam1B.1 aminoacylation ribozyme variant] | 0.743 | 0.605 | 0.471 | 0.642 | 0.543 | 0.453
CCACACUUCAAGCUAACGGUC [Fam1B.1 aminoacylation ribozyme variant] | 0.79 | 0.568 | 0.532 | 0.78 | 0.444 | 0.546
CCACACUUCAAGCUACCGGUC [Fam1B.1 aminoacylation ribozyme variant] | 0.832 | 1.23 | 0.931 | 1.3 | 1.2 | 0.946
CCACACUUCAAGCUAUCGGAC [Fam1B.1 aminoacylation ribozyme variant] | 0.941 | 0.982 | 0.654 | 1.01 | 0.681 | 0.582
CCACACUUCAAGCUAUCGGUU [Fam1B.1 aminoacylation ribozyme variant] | 0.942 | 1.29 | 1.18 | 1.43 | 1.12 | 0.897
CCACACUUCAAGCUUUCGGUC [Fam1B.1 aminoacylation ribozyme variant] | 0.741 | 1.53 | 1.17 | 1.64 | 1.3 | 1.1
CCACACUUCAAGGAAUAGGUC [Fam1B.1 aminoacylation ribozyme variant] | 0.627 | 0.526 | 0.489 | 0.514 | 0.478 | 0.5
CCACACUUCAAGGAAUUGGUC [Fam1B.1 aminoacylation ribozyme variant] | 0.734 | 0.901 | 0.755 | 0.726 | 1.03 | 0.823
CCACACUUCAAGGACUCGGUC [Fam1B.1 aminoacylation ribozyme variant] | 1.05 | 1.02 | 1.03 | 1.24 | 1.23 | 1.13
CCACACUUCAAGUAAUCCGUC [Fam1B.1 aminoacylation ribozyme variant] | 0.9 | 1.06 | 1.1 | 1.06 | 0.839 | 1.16
CCACACUUCAAGUAAUCGGUA [Fam1B.1 aminoacylation ribozyme variant] | 0.884 | 1.01 | 1.09 | 0.929 | 1.17 | 0.708
CCACACUUCAAGUAGUCGGUC [Fam1B.1 aminoacylation ribozyme variant] | 0.856 | 0.96 | 0.857 | 0.865 | 0.92 | 0.919
CCACACUUCAAGUGAUCGGUC [Fam1B.1 aminoacylation ribozyme variant] | 1.72 | 1.04 | 1.1 | 1.06 | 0.951 | 1.24
CCACACUUCAAUCAACCGGUC [Fam1B.1 aminoacylation ribozyme variant] | 0.923 | 0.862 | 0.665 | 1.02 | 1.06 | 1.22
CCACACUUCAAUCAAUCGAUC [Fam1B.1 aminoacylation ribozyme variant] | 1.25 | 0.523 | 0.463 | 0.609 | 0.512 | 0.592
CCACACUUCACGCAAUCAGUC [Fam1B.1 aminoacylation ribozyme variant] | 0.704 | 0.823 | 0.662 | 0.731 | 0.673 | 0.962
CCACACUUCACGCAAUCUGUC [Fam1B.1 aminoacylation ribozyme variant] | 0.436 | 0.481 | 0.472 | 0.678 | 0.447 | 0.464
CCACACUUCACGCCAUCGGUC [Fam1B.1 aminoacylation ribozyme variant] | 1.28 | 1.59 | 1.31 | 2.13 | 1.51 | 2.05
CCACACUUCACGGAAUCGGUC [Fam1B.1 aminoacylation ribozyme variant] | 1.01 | 1.16 | 1.14 | 1.39 | 1.65 | 0.915
CCACACUUCAGGCAACCGGUC [Fam1B.1 aminoacylation ribozyme variant] | 1.64 | 1.89 | 1.61 | 1.95 | 1.38 | 1.27
CCACACUUCAGGCAAUCGGUU [Fam1B.1 aminoacylation ribozyme variant] | 6.44 | 1.68 | 2.24 | 1.98 | 2.13 | 2.37
CCACACUUCAUCCAAUCGGUC [Fam1B.1 aminoacylation ribozyme variant] | 0.689 | 0.883 | 0.811 | 0.912 | 0.854 | 0.581
CCACACUUCAUGCAACCGGUC [Fam1B.1 aminoacylation ribozyme variant] | 0.916 | 0.996 | 0.943 | 0.981 | 0.795 | 0.752
CCACACUUCAUGCAAUCGGUA [Fam1B.1 aminoacylation ribozyme variant] | 0.533 | 0.681 | 0.769 | 0.733 | 0.811 | 0.458
CCACACUUCAUGCAAUCGGUU [Fam1B.1 aminoacylation ribozyme variant] | 0.766 | 1.2 | 1.33 | 1.26 | 1.37 | 0.843
CCACACUUCAUGGAAUCGGUC [Fam1B.1 aminoacylation ribozyme variant] | 0.928 | 0.858 | 0.836 | 1.1 | 0.946 | 0.598

Sequence | self-aminoacylation (biotinyl-Phe-oxazolone) | self-aminoacylation (biotinyl-Ile-oxazolone) | self-aminoacylation (biotinyl-Met-oxazolone) | self-aminoacylation (biotinyl-Val-oxazolone) | self-aminoacylation (biotinyl-Leu-oxazolone) | self-aminoacylation (biotinyl-Trp-oxazolone)
CCACACUUCCAGCAAUCGGAC [Fam1B.1 aminoacylation ribozyme variant] | 0.784 | 0.999 | 0.797 | 1.1 | 0.592 | 0.846
CCACACUUCCAGCAAUCGGUC [Fam1B.1 aminoacylation ribozyme variant] | 1.03 | 1.14 | 0.882 | 1.25 | 0.9 | 0.872
CCACACUUCCAGCAAUCGGUG [Fam1B.1 aminoacylation ribozyme variant] | 18.9 | 2.74 | 3.83 | 3.05 | 4.82 | 3.13
CCACACUUCCAGCAAUCGUUC [Fam1B.1 aminoacylation ribozyme variant] | 1.22 | 1.09 | 0.642 | 1.05 | 0.64 | 0.75
CCACACUUCCAGCAGUCGGUC [Fam1B.1 aminoacylation ribozyme variant] | 0.659 | 1.24 | 1.14 | 1.29 | 1.11 | 0.613
CCACACUUCCAUCAAUCGGUC [Fam1B.1 aminoacylation ribozyme variant] | 0.715 | 0.683 | 0.561 | 0.732 | 0.593 | 0.586
CCACACUUCCUGCAAUCGGUC [Fam1B.1 aminoacylation ribozyme variant] | 0.777 | 1.04 | 0.859 | 1.19 | 1.11 | 0.961
CCACACUUCGACCAAUCGGUC [Fam1B.1 aminoacylation ribozyme variant] | 1.42 | 1.31 | 1.74 | 1.85 | 1.22 | 1.41
CCACACUUCGAGCAAUCCGUC [Fam1B.1 aminoacylation ribozyme variant] | 0.498 | 1.28 | 1.03 | 1.49 | 1.08 | 1.4
CCACACUUCGAGCCAUCGGUC [Fam1B.1 aminoacylation ribozyme variant] | 1.27 | 1.84 | 1.27 | 1.87 | 1.58 | 1.02
CCACACUUCGAGUAAUCGGUC [Fam1B.1 aminoacylation ribozyme variant] | 0.641 | 0.822 | 0.958 | 0.893 | 0.78 | 0.789
CCACACUUCUAACAAUCGGUC [Fam1B.1 aminoacylation ribozyme variant] | 0.614 | 0.797 | 0.619 | 0.798 | 0.69 | 0.618
CCACACUUCUAGCAAUAGGUC [Fam1B.1 aminoacylation ribozyme variant] | 0.978 | 0.629 | 0.554 | 0.666 | 0.53 | 0.429
CCACACUUCUAGCAAUCGGAC [Fam1B.1 aminoacylation ribozyme variant] | 0.585 | 0.941 | 0.665 | 0.612 | 0.979 | 0.61
CCACACUUCUAGCAAUCGGGC [Fam1B.1 aminoacylation ribozyme variant] | 4.87 | 2.09 | 1.08 | 1.64 | 1.21 | 1.7
CCACACUUCUAGCAAUCGGUC [Fam1B.1 aminoacylation ribozyme variant] | 0.957 | 0.771 | 0.611 | 0.852 | 0.624 | 0.616
CCACACUUCUAGCAAUUGGUC [Fam1B.1 aminoacylation ribozyme variant] | 0.539 | 0.611 | 0.638 | 0.687 | 0.636 | 0.401
CCACACUUCUAGCACUCGGUC [Fam1B.1 aminoacylation ribozyme variant] | 0.649 | 0.819 | 0.748 | 0.783 | 0.702 | 0.913
CCACACUUGAACCAAUCGGUC [Fam1B.1 aminoacylation ribozyme variant] | 0.969 | 0.804 | 0.673 | 0.819 | 0.635 | 0.742
CCACACUUGAAGCUAUCGGUC [Fam1B.1 aminoacylation ribozyme variant] | 0.482 | 1.07 | 0.885 | 1.02 | 0.775 | 0.759
CCACACUUUAAACAAUCGGUC [Fam1B.1 aminoacylation ribozyme variant] | 2.02 | 0.718 | 0.633 | 0.825 | 0.733 | 1.3
CCACACUUUAAGCAAUAGGUC [Fam1B.1 aminoacylation ribozyme variant] | 1.07 | 0.619 | 0.592 | 0.683 | 0.578 | 0.444
CCACACUUUAAGCAAUCGGUA [Fam1B.1 aminoacylation ribozyme variant] | 0.889 | 0.788 | 0.722 | 0.95 | 0.63 | 0.553
CCACACUUUAAGCGAUCGGUC [Fam1B.1 aminoacylation ribozyme variant] | 0.891 | 1.13 | 1.16 | 1.11 | 1.25 | 1.03
CCACAGAUCAAGCAAUCGGUC [Fam1B.1 aminoacylation ribozyme variant] | 2.39 | 1.01 | 0.576 | 0.824 | 0.81 | 1.61
